Results: patent US20150374394A1, “SONOLYSIS WITH BIODEGRADABLE NANOPARTICLES” (THE BOARD OF TRUSTEES OF THE UNIVERSITY OF ARKANSAS, priority 2012, published 2015)

Test system: clots formed from pooled rabbit plasma with rabbit blood cells
Test: In vitro sonothrombolysis (STBL) of clots with MBs, CPDL, tPA and/or 450 nm StNPs, pulsed 1 MHz ultrasound
Conditions: pulsed 1 MHz ultrasound 15 min, in bovine calf serum, 0.5 mL/min; control ultrasound alone; 3 μm MBs, 0.1 mg/ml tPA, 0.06% w/V CPDL nanoemulsion
Experimental: FIG. 1 depicts a graph showing the potentiation of sonothrombolysis (STBL) efficacy by microbubbles (MBs) and/or a nanoemulsion of cyclopentadecanolide with or without tissue plasminogen activator (tPA). […] STBL was performed with fibrin-rich clots (see Example 2) using pulsed, 1 MHz ultrasound for 15 min. The MBs, tPA, StNPs etc. were suspended in bovine calf serum and introduced at a flow rate of 0.5 mL/min. STBL efficacy is reported as % clot lysis. Abbreviations: US=ultrasound; MBs=microbubbles; CPDL=cyclopentadecanolide; StNPs=starch nanoparticles; tPA=tissue plasminogen activator.
The clots used in these experiments were formed by mixing pooled rabbit plasma with rabbit blood cells (final volume equal to 2 mL; the volume of whole rabbit blood from which the cells were obtained), incubating this mixture for 24 h at 37° C. and then curing the formed clots for 24 h at 5° C. […] The StNPs were diluted to have an Optical Density reading at 530 nm (OD530) of 1.0. […] STBL efficacy was measured as the percent of the initial clot mass that was lost from the clot during the 15 min treatment time.

B1: tissue plasminogen activator (protein, UniProt P00750 36-562, looked up)
Tissue-type plasminogen …: SYQVICRDEKTQMIYQQHQSWLRPVLRSNRVEYCWCNSGRAQCHSVPVKSCSEPRCFNGGTCQQALYFSDFVCQCPEGFAGKCCEIDTRATCYEDQGISYRGTWSTAESGAECTNWNSSALAQKPYSGRRPDAIRLGLGNHNYCRNPDRDSKPWCYVFKAGKYSSEFCSTPACSEGNSDCYFGNGSAYRGTHSLTESGASCLPWNSMILIGKVYTAQNPSAQALGLGKHNYCRNPDGDAKPWCHVLKNRRLTWEYCDVPSCSTCGLRQYSQPQFRIKGGLFADIASHPWQAAIFAKHRRSPGERFLCGGILISSCWILSAAHCFQERFPPHHLTVILGRTYRVVPGEEEQKFEVEKYIVHKEFDDDTYDNDIALLQLKSDSSRCAQESSVVRTVCLPPADLQLPDWTECELSGYGKHEALSPFYSERLKEAHVRLYPSSRCTSQHLLNRTVTDNMLCAGDTRSGGPQANLHDACQGDSGGPLVCLNDGRMTLVGIISWGLGCGQKDVPGVYTKVTNYLDWIRDNMRP
notes: thrombolytic agent, used at 0.1 mg/ml
- STBL efficacy (FIG. 1), in words: improved STBL efficacy
